Bridge positions count the residues as written; N and C are the ends. Ends that are not written are not given here.
Legend:
mice hippocampi = test: Acetylcholine quantification in hippocampus after microinjection; format: in vivo, mouse
thoracic aorta = system: thoracic aorta; set-up: species or system Sprague-Dawley rats
C57BL/6J mice = test: Microinjection into the hippocampus of mice; format: in vivo, mouse; details: 1 μL of 20 μM SsTx and 40 μM retigabine mixture in the hippocampus
bronchial rings = system: bronchial rings; set-up: species or system Sprague-Dawley rats
KCNQ4 = KCNQ4 (Homo sapiens, UniProt P56696); test: Whole-cell patch clamp of KCNQ4 currents in HEK293T cells; format: cell-based; details: for effect of alanine substitution on inhibition of KCNQ4: 10 μM and 50 μM toxin mutants compared with WT SsTx (Fig. 2 A and B); for effect of conservative replacement on inhibition of KCNQ channels: 10 μM toxin, KCNQ4 currents (Fig. S2D)
KCNQ4, sequence (P56696 whole entry): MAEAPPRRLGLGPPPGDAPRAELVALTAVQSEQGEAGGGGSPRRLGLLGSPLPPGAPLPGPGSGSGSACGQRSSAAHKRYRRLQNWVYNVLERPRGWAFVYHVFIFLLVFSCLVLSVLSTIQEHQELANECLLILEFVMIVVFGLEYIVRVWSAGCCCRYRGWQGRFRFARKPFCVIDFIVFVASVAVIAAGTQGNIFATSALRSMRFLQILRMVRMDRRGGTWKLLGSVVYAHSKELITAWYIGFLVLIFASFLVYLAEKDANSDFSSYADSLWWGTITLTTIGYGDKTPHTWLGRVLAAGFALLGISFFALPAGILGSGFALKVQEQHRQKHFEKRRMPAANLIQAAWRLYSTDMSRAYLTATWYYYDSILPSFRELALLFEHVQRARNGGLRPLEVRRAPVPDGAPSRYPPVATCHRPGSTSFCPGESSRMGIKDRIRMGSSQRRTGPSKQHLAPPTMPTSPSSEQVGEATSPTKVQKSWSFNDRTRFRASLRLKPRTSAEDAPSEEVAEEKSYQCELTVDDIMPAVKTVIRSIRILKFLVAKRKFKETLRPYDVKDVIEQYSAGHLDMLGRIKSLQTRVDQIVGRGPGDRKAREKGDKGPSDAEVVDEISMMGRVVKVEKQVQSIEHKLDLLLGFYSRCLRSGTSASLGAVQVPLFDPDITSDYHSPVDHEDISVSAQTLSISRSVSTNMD

KCNQ4_D266G = KCNQ4_D266G (UniProt P56696)
KCNQ4_D266G, sequence (P56696 whole entry D266G): as the sequence (P56696 whole entry) above, with D266G counted along it

KCNQ4_D288A = KCNQ4_D288A (UniProt P56696)
KCNQ4_D288A, sequence (P56696 whole entry D288A): as the sequence (P56696 whole entry) above, with D288A counted along it

Molecule: O=C1N(c2ccccc2)c2ccccc2C1(Cc1ccncc1)Cc1ccncc1 [linopirdine]
- increase of acetylcholine concentration (mice hippocampi; mice hippocampi, 1 μL of 100 μM, 30 min after microinjection, n = 6): ~81.8%

Molecule: CCOC(=O)Nc1ccc(NCc2ccc(F)cc2)cc1N [retigabine]
- effect on vessel toxicity induced by centipede crude venom and SsTx (thoracic aorta): significantly reduced
- effect on SsTx-induced seizure (C57BL/6J mice): inhibited
- effect on SsTx-induced increase in acetylcholine secretion (mice hippocampi; mixture of 10 μM SsTx and 40 μM RTG, n = 3): inhibited the SsTx-induced increase in spiking frequency and acetylcholine secretion
- effect on bronchial ring contraction induced by crude venom or SsTx (bronchial rings): contraction can be reduced by retigabine

Molecule: K10A: SsTx single point mutant, alanine substitution of K10 (EVIKKDTPYAKRKFPYKSECLKACATSFTGGDESRIQEGKPGFFKCTCYFTTG)
- effect of alanine substitution on inhibition of KCNQ4 (KCNQ4): reduces the toxin’s inhibitory effect on KCNQ4

Molecule: K11A: SsTx single point mutant, alanine substitution of K11 (EVIKKDTPYKARKFPYKSECLKACATSFTGGDESRIQEGKPGFFKCTCYFTTG)
- effect of alanine substitution on inhibition of KCNQ4 (KCNQ4): reduces the toxin’s inhibitory effect on KCNQ4

Molecule: K13A: SsTx single point mutant, alanine substitution of K13 (EVIKKDTPYKKRAFPYKSECLKACATSFTGGDESRIQEGKPGFFKCTCYFTTG; ends and bridges not checked; cysteine pairing not given here)
- effect of alanine substitution on inhibition of KCNQ4 (KCNQ4): reduces the toxin’s inhibitory effect on KCNQ4

Molecule: K13R: SsTx point mutant, lysine 13 replaced with arginine (EVIKKDTPYKKRRFPYKSECLKACATSFTGGDESRIQEGKPGFFKCTCYFTTG; ends and bridges not checked; cysteine pairing not given here)
- effect of conservative replacement on inhibition of KCNQ channels (KCNQ4): minimal influence on SsTx inhibition of KCNQ channels

Molecule: R12A: SsTx single point mutant, alanine substitution of R12 (EVIKKDTPYKKAKFPYKSECLKACATSFTGGDESRIQEGKPGFFKCTCYFTTG; ends and bridges not checked; cysteine pairing not given here)
- effect of alanine substitution on inhibition of KCNQ4 (KCNQ4): reduces the toxin’s inhibitory effect on KCNQ4

Molecule: R12K: SsTx point mutant, arginine 12 replaced with lysine (EVIKKDTPYKKKKFPYKSECLKACATSFTGGDESRIQEGKPGFFKCTCYFTTG; ends and bridges not checked; cysteine pairing not given here)
- effect of conservative replacement on inhibition of KCNQ channels (KCNQ4): minimal influence on SsTx inhibition of KCNQ channels

B1: Ssm Spooky Toxin (SsTx) (peptide)
chain: EVIKKDTPYKKRKFPYKSECLKACATSFTGGDESRIQEGKPGFFKCTCYFTTG
modifications: disulfide 20-46, 24-48
- inhibitory activity lost in the presence of 10 μM SsTx, against WT KCNQ4 (KCNQ4_D266G): 99%
- inhibitory activity lost in the presence of 10 μM SsTx, against WT KCNQ4 (KCNQ4_D288A): 97%

Reference: publication PMC5816164 (Proceedings of the National Academy of Sciences of the …, 2018)
